# Reference: patent publication US20120058906A1 (published 2012)
# T1: rHuman Erythropoietin R/Fc Chimera, CF (R&D Systems Cat#963-ER) (human, UniProt P19235 25-250)
# T1 construct: Bought Fc chimera; also called EPO R/Fc; Epo R; Fc part of the bought chimera not given
# T1 sequence: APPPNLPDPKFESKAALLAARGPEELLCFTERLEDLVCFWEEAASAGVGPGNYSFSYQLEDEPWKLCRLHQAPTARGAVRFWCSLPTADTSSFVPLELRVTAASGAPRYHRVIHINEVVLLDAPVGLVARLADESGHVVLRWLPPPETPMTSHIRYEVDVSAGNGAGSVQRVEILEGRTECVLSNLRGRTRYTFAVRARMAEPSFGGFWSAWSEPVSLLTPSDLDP
# T2: rHuman Erythropoietin R/Fc Chimera, CF (R&D Systems Cat#963-ER) (human, UniProt P19235 25-250)
# T2 construct: Bought protein; also called EPOR; EPO R/Fc; Fc part of the bought chimera not given
# T2 sequence: T1 sequence
# B1: Fab VH1-46_IGHD6-13*01_IGHJ4*01 & B3_IGKJ1*01 (Fab, V domains shown)
# VH: QVQLVQSGAEVKKPGASVKVSCKASGYTFTSYYMHWVRQAPGQGLEWMGIINPSGGSTSYAQKFQGRVTMTRDTSTSTVYMELSSLRSEDTAVYYCAREGYSSSWYDYFDYWGQGTLVTVSS
# VL: not shown
# notes: Tested as a Fab made in E. coli: VH joined to the CH1 of Plasmid A (with Flag and His tags), VL joined to the kappa constant region of Plasmid C; also called VH1-46_IGHD6-13*01_IGH41*01 & B3_IGKJ1*01
# B2: Fab VH5-51_IGHD5-18*01>3_IGHJ4*01_G100K_G104T & V3-4_IGLJ1*01 (Fab, V domains shown)
# VH: EVQLVQSGAEVKKPGESLKISCKGSGYSFTSYWIGWVRQMPGKGLEWMGIIYPGDSDTRYSPSFQGQVTISADKSISTAYLQWSSLKASDTAMYYCARRKYSYTYDYFDYWGQGTLVTVSS
# VL: QTVVTQEPSFSVSPGGTVTLTCGLSSGSVSTSYYPSWYQQTPGQAPRTLIYSTNTRSSGVPDRFSGSILGNKAALTITGAQADDESDYYCVLYMGSGISYVFGTGTKVTVL
# notes: Modified anti-DLL4 Fab; lambda Plasmid E)
# B3: Fab VH4-28_IGHD7-27*01_IGHJ1*01 & L2_IGKJ1*01 (Fab, V domains shown)
# VH: QVQLQESGPGLVKPSDTLSLTCAVSGYSISSSNWWGWIRQPPGKGLEWIGYIYYSGSTYYNPSLKSRVTMSVDTSKNQFSLKLSSVTAVDTAVYYCARTNWGAEYFQHWGQGTLVTVSS
# VL: not shown
# Assays:
# [1] = molecular target: T3, rHuman IGF-1 sR (IGF-1 sR), CF (R&D Systems Cat#391-GR) (human, UniProt P08069 31-932); assay: ECL (MSD Multi-Spot) binding, antigen spotted on plate, Fab at 7.8 nM; blank spot 316;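 also: blank spot per well as comparator with Hit at signal to blank ratio of 4 or more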
# T3 construct: Bought soluble receptor; also called insulin-like growth factor-1 soluble receptor; IGF-R1
# [2] = molecular target: T4, rHuman Notch-1/Fc Chimera, CF (R&D Systems Cat#3647-TK) (human, UniProt P46531 19-526); assay: as above
# T4 construct: Bought Fc chimera; Fc part of the bought chimera not given
# [3] = molecular target: T1, rHuman Erythropoietin R/Fc Chimera, CF …; assay: as above
# [4] = molecular target: T3, rHuman IGF-1 sR (IGF-1 sR), CF (R&D …); assay: ECL (MSD Multi-Spot) binding, antigen spotted on plate, Fab at 31.3 nM; blank spot 250;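 also: blank spot per well as comparator with Hit at signal to blank ratio of 4 or more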
# [5] = molecular target: T4, rHuman Notch-1/Fc Chimera, CF (R&D …); assay: as above
# [6] = molecular target: T1, rHuman Erythropoietin R/Fc Chimera, CF …; assay: as above
# [7] = molecular target: T3, rHuman IGF-1 sR (IGF-1 sR), CF (R&D …); assay: ECL (MSD Multi-Spot) binding, antigen spotted on plate, Fab at 250 nM; blank spot 590;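 also: blank spot per well as comparator with Hit at signal to blank ratio of 4 or more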
# [8] = molecular target: T4, rHuman Notch-1/Fc Chimera, CF (R&D …); assay: as above
# [9] = molecular target: T1, rHuman Erythropoietin R/Fc Chimera, CF …; assay: as above
# [10] = molecular target: T3, rHuman IGF-1 sR (IGF-1 sR), CF (R&D …); assay: ECL (MSD Multi-Spot) binding, antigen spotted on plate, Fab at 1000 nM; blank spot 1133;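 also: blank spot per well as comparator with Hit at signal to blank ratio of 4 or more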
# [11] = molecular target: T4, rHuman Notch-1/Fc Chimera, CF (R&D …); assay: as above
# [12] = molecular target: T1, rHuman Erythropoietin R/Fc Chimera, CF …; assay: as above
# [13] = molecular target: T3, rHuman IGF-1 sR (IGF-1 sR), CF (R&D …); assay: ECL (MSD Multi-Spot) binding, antigen spotted on plate, Fab at 500 nM; blank spot 680;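 also: blank spot per well as comparator with Hit at signal to blank ratio of 4 or more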
# [14] = molecular target: T4, rHuman Notch-1/Fc Chimera, CF (R&D …); assay: as above
# [15] = molecular target: T1, rHuman Erythropoietin R/Fc Chimera, CF …; assay: as above
# [16] = molecular target: T3, rHuman IGF-1 sR (IGF-1 sR), CF (R&D …); assay: ECL (MSD Multi-Spot) binding, antigen spotted on plate, Fab at 125 nM; blank spot 403;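 also: blank spot per well as comparator with Hit at signal to blank ratio of 4 or more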
# [17] = molecular target: T4, rHuman Notch-1/Fc Chimera, CF (R&D …); assay: as above
# [18] = molecular target: T1, rHuman Erythropoietin R/Fc Chimera, CF …; assay: as above
# [19] = molecular target: T3, rHuman IGF-1 sR (IGF-1 sR), CF (R&D …); assay: ECL (MSD Multi-Spot) binding, antigen spotted on plate, Fab at 62.5 nM; blank spot 268;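 also: blank spot per well as comparator with Hit at signal to blank ratio of 4 or more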
# [20] = molecular target: T4, rHuman Notch-1/Fc Chimera, CF (R&D …); assay: as above
# [21] = molecular target: T1, rHuman Erythropoietin R/Fc Chimera, CF …; assay: as above
# [22] = molecular target: T3, rHuman IGF-1 sR (IGF-1 sR), CF (R&D …); assay: ECL (MSD Multi-Spot) binding, antigen spotted on plate, Fab at 15.6 nM; blank spot 294;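 also: blank spot per well as comparator with Hit at signal to blank ratio of 4 or more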
# [23] = molecular target: T4, rHuman Notch-1/Fc Chimera, CF (R&D …); assay: as above
# [24] = molecular target: T1, rHuman Erythropoietin R/Fc Chimera, CF …; assay: as above
# [25] = molecular target: T5, Recombinant Human DLL4 (delta-like protein 4) (human, UniProt Q9NR61 27-524); assay: SPR, Fab on recombinant human DLL4
# T5 construct: Bought (R&D Systems Cat#1506-D4/CF); also called rHuman DLL4
# [26] = molecular target: T5, Recombinant Human DLL4 (delta-like …); assay: SPR, Fab on recombinant human DLL4; standard deviation in parentheses
# [27] = molecular target: T6, rHuman P-Cadherin/Fc Chimera, CF (R&D Systems Cat#861-PC) (human, UniProt P22223 108-654); assay: MSD ECL multi-spot assay, antigen spotted on plate, Fab 0.36 uM; blank spot 1948
# T6 construct: Bought protein; also called CDH3; Fc part of the bought chimera not given
# [28] = molecular target: T7, rHuman HGF R/c-MET/Fc Chimera, CF (R&D Systems Cat#358-MT/CF) (human, UniProt P08581 25-932); assay: as above
# T7 construct: Bought protein; also called HGF R/Fc; hepatocyte growth factor receptor; Fc part of the bought chimera not given
# [29] = molecular target: T8, rHuman IGF-1 sR (IGF-1 sR), CF (R&D Systems Cat#391-GR) (human, UniProt P08069 31-932); assay: as above
# T8 construct: Bought soluble receptor; also called insulin-like growth factor-1 soluble receptor; IGF-R1
# [30] = molecular target: T9, rHuman ErbB2/Fc Chimera, CF (R&D Systems Cat#1129-ER) (human, UniProt P04626 23-652); assay: as above
# T9 construct: Bought protein; also called HER2/neu; human epidermal growth factor 2 receptor; Fc part of the bought chimera not given
# [31] = molecular target: T2, rHuman Erythropoietin R/Fc Chimera, CF …; assay: as above
# [32] = molecular target: T10, rHuman CD44/Fc Chimera, CF (R&D Systems Cat#3660-CD) (human, UniProt P16070 21-220); assay: as above
# T10 construct: Bought protein; Fc part of the bought chimera not given
binder,measurement,setting,value
B1,ECL signal,[1],353
same,ECL signal,[2],486
same,ECL signal,[3],6760
same,ECL signal,[4],385
same,ECL signal,[5],563
same,ECL signal,[6],7880
same,ECL signal,[7],993
same,ECL signal,[8],1240
same,ECL signal,[9],8540
same,ECL signal,[10],1670
same,ECL signal,[11],2270
same,ECL signal,[12],8590
same,ECL signal,[13],1330
same,ECL signal,[14],1980
same,ECL signal,[15],10300
same,ECL signal,[16],654
same,ECL signal,[17],802
same,ECL signal,[18],9240
same,ECL signal,[19],491
same,ECL signal,[20],536
same,ECL signal,[21],7750
same,ECL signal,[22],349
same,ECL signal,[23],418
same,ECL signal,[24],8360
B2,koff,[25],0.023 s⁻¹
same,Kd,[26],355 nM
same,kon,[26],64500 M⁻¹ s⁻¹
B3,ECL signal,[27],2740
same,ECL signal,[28],2030
same,ECL signal,[29],1700
same,ECL signal,[30],2030
same,ECL signal,[31],19400
same,ECL signal,[32],2480
